{"source": "paper PMC10104018", "binders": {"B1": {"name": "Cy5-U15 (ssRNA)", "RNA": "UUUUUUUUUUUUUUU"}}, "key": {"[1]": {"biological_target": "T1, RGG-GFP-RGG, TXTL-expressed (UniProt D0PV95 1-168)", "T1 chain": "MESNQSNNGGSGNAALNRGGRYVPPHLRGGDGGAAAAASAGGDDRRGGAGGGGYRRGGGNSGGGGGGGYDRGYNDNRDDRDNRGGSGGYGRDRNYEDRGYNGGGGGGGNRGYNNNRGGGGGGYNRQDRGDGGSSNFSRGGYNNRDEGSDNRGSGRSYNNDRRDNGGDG", "test": "confocal fluorescence co-localization to condensates"}, "[2]": {"biological_target": "T2, RGG-GFP-RGG (His), purified (UniProt D0PV95 1-168)", "T2 chain": "T1 chain", "test": "confocal fluorescence co-localization to condensates"}}}
{"binder": "B1", "values": [{"measurement": "binding result", "setting": "[1]", "result": "binds"}, {"measurement": "binding result", "setting": "[2]", "result": "binds"}]}
